One experiment addresses T1, J protein (bacteriophage, UniProt P0DXX7).
T1 chain: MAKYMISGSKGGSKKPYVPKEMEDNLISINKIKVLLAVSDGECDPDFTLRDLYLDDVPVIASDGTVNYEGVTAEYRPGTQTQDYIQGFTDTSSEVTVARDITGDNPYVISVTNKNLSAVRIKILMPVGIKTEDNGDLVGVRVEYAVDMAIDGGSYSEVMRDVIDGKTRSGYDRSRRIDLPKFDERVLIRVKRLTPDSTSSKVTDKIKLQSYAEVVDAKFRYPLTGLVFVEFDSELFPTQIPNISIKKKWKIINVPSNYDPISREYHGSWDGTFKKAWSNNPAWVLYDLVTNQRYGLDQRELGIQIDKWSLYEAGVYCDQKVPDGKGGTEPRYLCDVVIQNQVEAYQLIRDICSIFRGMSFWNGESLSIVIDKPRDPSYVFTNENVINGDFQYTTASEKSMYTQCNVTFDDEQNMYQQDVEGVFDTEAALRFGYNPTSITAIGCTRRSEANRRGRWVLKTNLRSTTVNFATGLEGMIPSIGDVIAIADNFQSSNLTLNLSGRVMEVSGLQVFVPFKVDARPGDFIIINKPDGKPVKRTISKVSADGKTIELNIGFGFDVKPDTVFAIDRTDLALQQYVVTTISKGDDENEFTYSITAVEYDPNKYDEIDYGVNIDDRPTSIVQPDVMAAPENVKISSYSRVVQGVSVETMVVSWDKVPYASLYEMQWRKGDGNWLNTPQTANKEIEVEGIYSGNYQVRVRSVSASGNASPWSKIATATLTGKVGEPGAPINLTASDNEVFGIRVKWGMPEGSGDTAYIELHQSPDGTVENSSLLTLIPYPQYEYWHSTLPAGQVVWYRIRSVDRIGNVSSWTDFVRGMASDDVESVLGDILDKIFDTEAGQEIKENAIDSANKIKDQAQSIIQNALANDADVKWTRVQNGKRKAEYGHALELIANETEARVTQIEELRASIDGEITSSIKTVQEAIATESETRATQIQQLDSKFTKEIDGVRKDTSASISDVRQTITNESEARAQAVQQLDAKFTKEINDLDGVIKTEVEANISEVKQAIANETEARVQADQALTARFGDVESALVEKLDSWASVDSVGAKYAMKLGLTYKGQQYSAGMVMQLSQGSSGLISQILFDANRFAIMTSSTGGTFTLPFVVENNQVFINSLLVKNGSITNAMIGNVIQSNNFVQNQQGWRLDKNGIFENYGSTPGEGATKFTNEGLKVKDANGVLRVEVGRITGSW
Briefly: BLI. For orientation: Biolayer interferometry detects binding as a change in optical thickness at a sensor tip.

For experiment [1], the target named is Gifsy-1 central tail tip J protein with Flag tag (phage Gifsy-1 of Salmonella Typhimurium). Briefly: BLI.

B1: OmpX (protein)
chain: ATSTVTGGYAQSDAQGQMNKMGGFNLKYRYEEDNSPLGVIGSFTYTEKSRTASSGDYNKNQYYGITAGPAYRINDWASIYGVVGVGYGKFQTTEYPTYKHDTSDYGFSYGAGLQFNPMENVALDFSYEQSRIRSVDVGTWIAGVGYRF
For B1, in the experiment with J protein, the Kd amounted to 70 nM.

B2: OmpX fused to TF and His tag (receptor)
chain: MKKIACLSALAAVLAFSAGTAVAATSTVTGGYAQSDAQGVANKMSGFNLKYRYEQDDNPLGVIGSFTYTEKDRTNGAGDYNKGQYYGITAGPAYRLNDWASIYGVVGVGYGKFQTTDYPTYKHDTSDYGFSYGAGLQFNPMENVALDFSYEQSRIRSVDVGTWIAGVGYRF
Molecule B2 had a koff in experiment [1] of 0.000275 s⁻¹.

B3: BtuB (protein)
chain: QDTSPDTLVVTANRFQQPRSAVLAPVTIVTRQDIERWQSTSVNDVLRRLPGVDIAQSGGAGQNSSIFIRGTNSSHVLVLIDGVRLNLAGVSGSADLSQFPVSLVQRIEYIRGPRSAIYGSDAIGGVVNIITTRDNPGTELTAGWGSNSYQNYDISTQQQLGENTRATLIGDYEYTKGFDVVAKGGTGMQAQPDRDGFLSKTLYGALEHTFSDRWSGFVRGYGYDNRTDYDAYYSPGSPLIDTRKLYSQSWDAGLRFNGERIQSQLVSSYSHSKDYNYDPHYGRYDTSATLDEMKQYNVQWTNSVVVGHGNVGAGVDWQKQTTTPGTGYVPEGYDQRNTGVYLTGLQQLGDFTLEAAARSDDNSQFGRHGTWQTSAGWEFIEGYRFIASYGTSYKAPNLGQLYGYYGNPNLNPEKSKQWEGAFEGLTAGVSWRISGYRNDINDMIDYDDHLQKYYNEGKARIKGIEATANFDTGPLTHTVSYDYVDARNAITDTPLPRRSKQMAKYQLDWDVYDFDWGVTYQYLGSRYDSDYSAYPYRTVKMGGVSLWDLTVAYPVTSHLTVRGKIANLFDKDYETVYGYQTAGREYTLSGSYTF
Molecule B3 showed a Kd with J protein of 0.00597 nM.

Broadly, the Kd is a measure of binding affinity in units of concentration. The low end stands for tighter binding, the high end for weaker binding. As a reminder, the koff is a measure of how fast the partners let go of each other.
